# In article PMC9287160, “Structural insights into the function-modulating effects of nanobody binding to the integrin receptor αMβ2” (The Journal of Biological Chemistry, 2022):
# T1: recombinant human αMβ2 αI domain (human)
# T1 construct: αI domain (von Willebrand factor type A domain) of integrin αM (CD11b), human; numbers count on: the mature protein; PDB 4M76 (cited) holds an αI–C3d complex of the same laboratory; also called hαI; human αI domain
# T1 chain: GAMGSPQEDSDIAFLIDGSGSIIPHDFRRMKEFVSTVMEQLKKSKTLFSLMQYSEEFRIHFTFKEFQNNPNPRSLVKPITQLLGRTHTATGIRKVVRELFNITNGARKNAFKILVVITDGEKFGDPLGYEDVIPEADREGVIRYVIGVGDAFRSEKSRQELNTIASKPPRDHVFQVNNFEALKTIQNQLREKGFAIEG
# Biological target: T1, recombinant human αMβ2 αI domain
# Assay: BLI; His-tagged hCD11bNb1 on anti-penta-HIS sensors; αMβ2 HP 6.25-50 nM or αI domain 0.8-25 nM in solution; 30 °C; 20 mM Hepes pH 7.5, 150 mM NaCl, 5 mM MgCl2, 1 mM CaCl2; 1:1 model; triplicates; apparent
# Conditions: both partners purified
binder,measurement,value
"nanobody hCD11bNb1 (His-tagged) (VHH, nanobody selected by phage display from a llama immunised with the αMβ2 HP; they are in PDB 7NP9 (nanobody alone) and PDB 7P2D (complex); Captured through its His tag on anti-penta-HIS BLI sensors. pET-22b(+) usually adds a C-terminal His6 (surmise); also called parental hCD11bNb1; WT hCD11bNb1) VHH: QVQLVETGGGLVQAGGSLRLSCAASGNINSFNAMGWFRQAPGKQRELVAAITFGGRTNYADSVKGRFTISRDNTKGSVYLQMNSLKPEDTAVYYCAASENNLLTGVWHYWGRGTQVTVSS",Kd,1 to 6 nM
